The source of these data is patent publication US20210095004.

Data set [1] deals with T1, Aca cand27.
T1 chain: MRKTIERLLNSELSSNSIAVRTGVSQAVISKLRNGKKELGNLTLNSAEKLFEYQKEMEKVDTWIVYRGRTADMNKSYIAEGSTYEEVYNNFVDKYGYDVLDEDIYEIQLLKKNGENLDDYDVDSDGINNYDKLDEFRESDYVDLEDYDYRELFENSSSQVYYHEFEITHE

Data set [2] has as its target T2, Aca cand9.
T2 chain: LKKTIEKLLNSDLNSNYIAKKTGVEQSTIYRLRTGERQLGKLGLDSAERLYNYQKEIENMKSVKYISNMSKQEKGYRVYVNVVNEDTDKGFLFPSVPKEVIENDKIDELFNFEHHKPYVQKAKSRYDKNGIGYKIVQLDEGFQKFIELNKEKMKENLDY

In data set [3] the target is T3, truncated Aca cand27.
T3 chain: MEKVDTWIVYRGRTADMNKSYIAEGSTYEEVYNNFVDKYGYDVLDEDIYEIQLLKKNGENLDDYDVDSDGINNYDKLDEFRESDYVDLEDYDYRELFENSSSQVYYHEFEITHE

In data set [4] the target is T4, truncated Aca cand9.
T4 chain: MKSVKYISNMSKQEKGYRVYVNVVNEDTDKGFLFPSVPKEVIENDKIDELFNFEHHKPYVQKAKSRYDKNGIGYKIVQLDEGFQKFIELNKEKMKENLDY

B1: Staphylococcus aureus Cas9 (protein)
chain: MKRNYILGLDIGITSVGYGIIDYETRDVIDAGVRLFKEANVENNEGRRSKRGARRLKRRRRHRIQRVKKLLFDYNLLTDHSELSGINPYEARVKGLSQKLSEEEFSAALLHLAKRRGVHNVNEVEEDTGNELSTKEQISRNSKALEEKYVAELQLERLKKDGEVRGSINRFKTSDYVKEAKQLLKVQKAYHQLDQSFIDTYIDLLETRRTYYEGPGEGSPFGWKDIKEWYEMLMGHCTYFPEELRSVKYAYNADLYNALNDLNNLVITRDENEKLEYYEKFQIIENVFKQKKKPTLKQIAKEILVNEEDIKGYRVTSTGKPEFTNLKVYHDIKDITARKEIIENAELLDQIAKILTIYQSSEDIQEELTNLNSELTQEEIEQISNLKGYTGTHNLSLKAINLILDELWHTNDNQIAIFNRLKLVPKKVDLSQQKEIPTTLVDDFILSPVVKRSFIQSIKVINAIIKKYGLPNDIIIELAREKNSKDAQKMINEMQKRNRQTNERIEEIIRTTGKENAKYLIEKIKLHDMQEGKCLYSLEAIPLEDLLNNPFNYEVDHIIPRSVSFDNSFNNKVLVKQEENSKKGNRTPFQYLSSSDSKISYETFKKHILNLAKGKGRISKTKKEYLLEERDINRFSVQKDFINRNLVDTRYATRGLMNLLRSYFRVNNLDVKVKSINGGFTSFLRRKWKFKKERNKGYKHHAEDALIIANADFIFKEWKKLDKAKKVMENQMFEEKQAESMPEIETEQEYKEIFITPHQIKHIKDFKDYKYSHRVDKKPNRELINDTLYSTRKDDKGNTLIVNNLNGLYDKDNDKLKKLINKSPEKLLMYHHDPQTYQKLKLIMEQYGDEKNPLYKYYEETGNYLTKYSKKDNGPVIKKIKYYGNKLNAHLDITDDYPNSRNKVVKLSLKPYRFDVYLDNGVYKFVTVKNLDVIKKENYYEVNSKCYEEAKKLKKISNQAEFIASFYNNDLIKINGELYRVIGVNNDLLNRIEVNMIDITYREYLENMNDKRPPRIIKTIASKTQSIKKYSTDILGNLYEVKSKKHPQIIKKG
As to B1, the “SauCas9-mediated cleavage of target DNA in vitro (FIG. 1)” value in data set [1] was “inhibited SauCas9-mediated cleavage of target DNA at Acr:SauCas9 molar ratios of 10:1 and 20:1”; in data set [2], “inhibited SauCas9-mediated cleavage of target DNA at Acr:SauCas9 molar ratios of 10:1 and 20:1”. Further, in data set [3], the “SauCas9/guide RNA-mediated cleavage of target DNA in vitro (FIG. 2C)” value was “inhibited SauCas9/guide RNA-mediated cleavage of target DNA at truncated Acr:SauCas9 molar ratios of 5:1, 10:1, and 20:1”. Moreover, in data set [4], the “SauCas9/guide RNA-mediated cleavage of target DNA in vitro (FIG. 2B)” value is “inhibited SauCas9/guide RNA-mediated cleavage of target DNA at truncated Acr:SauCas9 molar ratios of 5:1, 10:1, and 20:1”.
